The values that follow are results of earlier work, collected in article PMC10871162.

Where two headings read alike, the source gives them in different places.

In data set [1] the target is RyR peptide RyR peptide (Homo sapiens) (UniProt P21817).
Data set [2] has as its target TRTK-12 (CapZ peptide) (Homo sapiens) (UniProt P52907).
In another data set the target is RyR peptide (UniProt P21817).
The target in a further data set is RIIβ peptide (UniProt P31323).
The target in data set [3] is TRTK-12 (CapZ peptide) (Homo sapiens) (UniProt P52907). The source holds these as a separate data set.
In data set [4] the target is myosin IIA peptide (Homo sapiens) (UniProt P35579).
The target in data set [5] is nonmuscle myosin IIA mysIIA peptide (Homo sapiens) (UniProt P35579).

UniProt P31323, sequence (P31323 whole entry): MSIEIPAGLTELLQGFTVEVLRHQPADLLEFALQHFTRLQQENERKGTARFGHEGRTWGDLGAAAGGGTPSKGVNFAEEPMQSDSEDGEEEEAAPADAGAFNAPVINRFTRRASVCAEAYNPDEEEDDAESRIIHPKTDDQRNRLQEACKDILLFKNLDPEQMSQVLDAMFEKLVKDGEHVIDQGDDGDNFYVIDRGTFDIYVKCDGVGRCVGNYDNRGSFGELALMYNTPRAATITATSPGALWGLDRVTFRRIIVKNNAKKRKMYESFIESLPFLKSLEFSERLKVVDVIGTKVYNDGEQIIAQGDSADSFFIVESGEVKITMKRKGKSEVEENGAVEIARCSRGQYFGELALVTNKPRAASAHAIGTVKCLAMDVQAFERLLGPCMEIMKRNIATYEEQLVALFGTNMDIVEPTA

With S100A1 (from UniProt P23297), the Kd is 8 µM in data set [1], 23 µM in data set [2], 8 µM with RyR peptide and 2 µM with RIIβ peptide.
Turning to S100B (from UniProt P04271), the Kd in data set [3] was 2.9 µM.
On to S100A4 (from UniProt P26447), for which the Kd in data set [4] and in data set [5] was less than 0.001 µM each time.

One may read the Kd as the concentration at which binding is half-saturated.
